# Measured values taken from publication PMC13326754.
# What was measured:
# [1] = system: U2AF1alpha (Fritillaria borealis); test: EMSA; conditions: 330 nM; single U2AF1; never exceeded 5% bound; EMSA: 20 mM Hepes, 0.1 M NaCl, 5% glycerol, 0.5% Tween-20, pH 7.8, 50 ng/ul BSA, 0.5 mM TCEP, 0.5 mM EDTA; 1 h on ice; 6% PAGE 0.5x TBE at 4 C
# [2] = system: U2AF1beta (Fritillaria borealis); test: EMSA; conditions: 330 nM; single U2AF1; never exceeded 5% bound; EMSA: 20 mM Hepes, 0.1 M NaCl, 5% glycerol, 0.5% Tween-20, pH 7.8, 50 ng/ul BSA, 0.5 mM TCEP, 0.5 mM EDTA; 1 h on ice; 6% PAGE 0.5x TBE at 4 C
# [3] = target: GST-U2AF1α (Fritillaria borealis U2AF small subunit, paralog α) (Fritillaria borealis); test: pull-down; GST-U2AF1 baits co-expressed with U2AF2-V5 in HEK293T cells; glutathione beads; washes under increasing salt concentration; western blot for V5 and GST
excess protein bound on glutathione beads relative to U2AF2β [3] [%],Substance,binding signal [1] [% bound],binding signal [2] [% bound]
–,GGGCUGUCCUCUUUUUUUUUUCAGGCGUCU [ORN.PyU],< 5,< 5
–,GGGUCGCUUCUCCCCCCCCCUAGGCGUCU [ORN.PyC],< 5,< 5
10 to 35,"U2AF2α-V5 (Fritillaria borealis U2AF large subunit, paralog α, V5/6xHis tagged) (natural protein)",–,–
